Measured values: patent US8653023

Biological target: protein phosphatase 2A (PP2A), endogenous, in N27 cell lysate

B1: protein kinase C delta (PKCδ), endogenous, in N27 cell lysate (immortalized rat fetal mesencephalic dopaminergic neuronal cells) (protein)
chain: MAPFLRISFNSYELGSLQAEDDASQPFCAVKMKEALTTDRGKTLVQKKPTMYPEWKSTFDAHIYEGRVIQIVLMRAAEDPMSEVTVGVSVLAERCKKNNGKAEFWLDLQPQAKVLMCVQYFLEDGDCKQSMRSEEEAMFPTMNRRGAIKQAKIHYIKNHEFIATFFGQPTFCSVCKEFVWGLNKQGYKCRQCNAAIHKKCIDKIIGRCTGTATNSRDTIFQKERFNIDMPHRFKVYNYMSPTFCDHCGTLLWGLVKQGLKCEDCGMNVHHKCREKVANLCGINQKLLAEALNQVTQKASRKPETPETVGIYQGFEKKTAVSGNDIPDNNGTYGKIWEGSNRCRLENFTFQKVLGKGSFGKVLLAELKGKERYFAIKYLKKDVVLIDDDVECTMVEKRVLALAWENPFLTHLICTFQTKDHLFFVMEFLNGGDLMFHIQDKGRFELYRATFYAAEIICGLQFLHGKGIIYRDLKLDNVMLDKDGHIKIADFGMCKENIFGENRASTFCGTPDYIAPEILQGLKYSFSVDWWSFGVLLYEMLIGQSPFHGDDEDELFESIRVDTPHYPRWITKESKDIMEKLFERDPAKRLGVTGNIRLHPFFKTINWNLLEKRKVEPPFKPKVKSPSDYSNFDPEFLNEKPQLSFSDKNLIDSMDQTAFKGFSFVNPKYEQFLE
32P-kinase assay: phosphorylation of immunoprecipitated PP2A: PP2A immunoprecipitated from N27 cells was effectively phosphorylated by PKCδ immunoprecipitates
